Data reported in PMC8540780, “Biochemical and Molecular Characterization of the Rice Chalcone Isomerase Family” (Plants, 2021).

Experiments:
[1] = substrate: O=C(/C=C/c1ccc(O)cc1)c1ccc(O)cc1O; test: purified protein; conditions: 50 mM Tris pH 7.5, 500 µg enzyme (b24 prints 440 µg/mL for the activity test), substrate 1–50 µM
[2] = substrate: O=C(/C=C/c1ccc(O)cc1)c1c(O)cc(O)cc1O; test: purified protein; type: biochemical, Oryza sativa; conditions: 50 mM Tris pH 7.5, 0.1 µg enzyme per mL, substrate 1–50 µM

B1: OsCHI3 (Oryza sativa Japonica Group) (protein)
chain: MAAVSEVEVDGVVFPPVARPPGSGHAHFLAGAGVRGVEIAGNFIKFTAIGVYLEEGAAVPALAKKWAGKSADELAADAAFFRDVVTGDFEKFTRVTMILPLTGEQYSDKVTENCVAAWKAAGVYTDAEGAAADKFKEAFKPHSFPPGASILFTHSPPGVLTVAFSKDSSVPEGAVAAAAIENRALCEAVLDSIIGEHGVSPAAKRSIAARVSQLLKAESTGDVAAAEPAPVSA
notes: 233 aa; 28 kDa on SDS-PAGE
Q: Which results are given for B1?
A: Km [1]: 50.95 ± 4.83 µM; Vmax [1]: 0.000212 µmol/min/mg; kcat [1]: 9.21e-05 s⁻¹; kcat/Km [1]: 1.81 M⁻¹ s⁻¹; Km [2]: 11.60 ± 0.78 µM; Vmax [2]: 160 µmol/min/mg; kcat [2]: 69.3 s⁻¹; kcat/Km [2]: 5.98e+06 M⁻¹ s⁻¹
